Reference: PMC3644619 (Gene, 2008)

Key:
[1] = target: SF1 (steroidogenic factor 1) (UniProt Q04752 1-461); test: two-hybrid
[2] = target: T1, hormone-binding domain (HBD) of ERR1 (UniProt P11474 1-423); test: two-hybrid
T1 sequence (looked up): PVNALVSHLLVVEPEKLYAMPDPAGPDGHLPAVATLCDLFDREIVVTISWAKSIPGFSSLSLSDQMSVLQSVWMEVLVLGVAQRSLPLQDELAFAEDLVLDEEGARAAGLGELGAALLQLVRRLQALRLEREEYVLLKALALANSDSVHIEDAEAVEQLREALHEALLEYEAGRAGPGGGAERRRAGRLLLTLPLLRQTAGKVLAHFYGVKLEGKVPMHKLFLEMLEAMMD

SF1 (steroidogenic factor 1), sequence (Q04752 whole entry, the tested form may be a part): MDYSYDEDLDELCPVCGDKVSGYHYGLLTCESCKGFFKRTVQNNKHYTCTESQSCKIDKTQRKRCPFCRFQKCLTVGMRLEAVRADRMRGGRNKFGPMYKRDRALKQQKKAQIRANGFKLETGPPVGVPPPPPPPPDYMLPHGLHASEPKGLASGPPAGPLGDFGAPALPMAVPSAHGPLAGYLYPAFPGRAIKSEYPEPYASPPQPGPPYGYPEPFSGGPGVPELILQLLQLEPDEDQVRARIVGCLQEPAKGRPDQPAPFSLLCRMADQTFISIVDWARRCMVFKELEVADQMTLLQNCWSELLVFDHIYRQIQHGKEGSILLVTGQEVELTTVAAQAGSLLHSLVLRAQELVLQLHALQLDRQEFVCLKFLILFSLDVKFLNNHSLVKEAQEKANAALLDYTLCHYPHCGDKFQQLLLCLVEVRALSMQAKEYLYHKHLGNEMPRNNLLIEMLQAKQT

B1: PNRC1d (natural protein)
chain: not shown
Which results are given for B1?
fold increase of affinity compared to fl PNRC (two-hybrid β-galactosidase) [1]: > 10 fold; fold increase of affinity compared to fl PNRC (two-hybrid β-galactosidase) [2]: > 10 fold
